One assay concerns the target HLA-B*40:01. As to the kind of experiment: IEDB peptide-MHC binding, purified MHC/competitive/radioactivity; filed as Kd, often an IC50 or EC50 that approximates it; ≥ and ≤ were set here for values at or beyond the usual limits of such assays. Particulars: source organism: Dengue virus 2 Jamaica/1409/1983.
Another assay concerns the target HLA-A*02:01. As to the kind of experiment: IEDB peptide-MHC binding, purified MHC/competitive/fluorescence; filed as Kd, often an IC50 or EC50 that approximates it; ≥ and ≤ were set here for values at or beyond the usual limits of such assays.
The target of the next assay is HLA-A*26:01. As to the kind of experiment: IEDB peptide-MHC binding, purified MHC/competitive/radioactivity; filed as Kd, often an IC50 or EC50 that approximates it; ≥ and ≤ were set here for values at or beyond the usual limits of such assays.
The next assay deals with HLA-A*29:02. The assay is described as above.
A further assay addresses HLA-A*01:01. Described as above.
In a further assay the target is HLA-A*24:02. The assay is described as above.
In a further assay the target is HLA-A*23:01. Described as above.
In a further assay the target is HLA-A*30:02. The assay is described as above.
In a further assay the target is HLA-A*32:01. Described as above.
A further assay addresses HLA-A*30:01. Described as above.
The next assay addresses HLA-A*33:01. The description is as above. Particulars: source organism: Triticum aestivum.
The target in another assay is HLA-A*03:01. Described as above. To be noted: source organism: Triticum aestivum.
The next assay addresses HLA-A*68:01. The description is as above. Particulars: source organism: Triticum aestivum.
Another assay has as its target HLA-A*31:01. The assay is described as above. Particulars: source organism: Triticum aestivum.
A further assay concerns the target HLA-A*11:01. The description is as above. To be noted: source organism: Triticum aestivum.
Where [1] appears, read: source organism: Vaccinia virus Copenhagen.
The mark [2] stands for this setting: source organism: Mammarenavirus machupoense.
Setting [3] is: source organism: Mammarenavirus brazilense.
The mark [4] stands for this setting: source organism: Mammarenavirus whitewaterense.
Setting [5] is: source organism: Mammarenavirus guanaritoense.
Setting [6] is: source organism: Lymphocytic choriomeningitis virus (strain Armstrong).
The mark [7] stands for this setting: source organism: SARS coronavirus Tor2.
[8] abbreviates: source organism: Mammarenavirus juninense.
Where [9] appears, read: source organism: Mammarenavirus lassaense.
Setting [10] is: source organism: Triticum aestivum.

Where only a bound is given, the exact number is not on record here.

By Kd is commonly meant the constant that tells how readily two partners part at equilibrium. For EEEEQTLTIL, the dissociation constant (Kd) with HLA-B*40:01 was determined as 10.4 nM.
Consider VLEDVQAAGI, for which the dissociation constant (Kd) with HLA-A*02:01 (setting [1]) amounted to 232 nM.
For the sequence RCWLIRNGSY, the dissociation constant (Kd) with HLA-A*26:01 (setting [2]) is not below 69.7 µM; with HLA-A*29:02 (setting [2]) it was 4810 nM; with HLA-A*01:01 (setting [2]), not below 37.7 µM; in the assay with HLA-A*24:02 (setting [2]), not below 70.3 µM; in the assay with HLA-A*23:01 (setting [2]) it was not below 34.7 µM; with HLA-A*30:02 (setting [2]) it was 16.1 nM.
Take LSHLSLGLI: the figures for the dissociation constant (Kd) with HLA-A*29:02 (setting [3]), in the assay with HLA-A*24:02 (setting [3]) and in the assay with HLA-A*23:01 (setting [3]) were 9100 nM, not below 21 µM and 7.76 µM, respectively.
Regarding RCWLTKNGSY, the dissociation constant (Kd) with HLA-A*26:01 (setting [4]) was not below 23.3 µM; with HLA-A*29:02 (setting [4]), 8920 nM; with HLA-A*01:01 (setting [4]), 18.9 µM; with HLA-A*32:01 (setting [4]), not below 69900 nM; with HLA-A*24:02 (setting [4]), not below 70.3 µM; with HLA-A*23:01 (setting [4]) it was not below 70 µM. Moreover, the Kd in the assay with HLA-A*30:02 (setting [4]) is 57.5 nM; with HLA-A*30:01 (setting [4]), 3.79 µM.
CSKILDLCY: the Kd was not below 54.6 µM with HLA-A*26:01 (setting [5]); 3620 nM with HLA-A*29:02 (setting [5]); 0.0531 µM with HLA-A*01:01 (setting [5]); not below 50900 nM with HLA-A*32:01 (setting [5]); 664 nM with HLA-A*30:02 (setting [5]); 14.9 µM in the assay with HLA-A*30:01 (setting [5]).
LLFLEDVEP displayed a Kd with HLA-A*02:01 (source organism: Horsepox virus) not below 20000 nM.
Take QYLIIQNRTW: the Kd worked out at 687 nM in the assay with HLA-A*29:02 (setting [6]), 0.693 µM with HLA-A*24:02 (setting [6]) and 0.0574 µM in the assay with HLA-A*23:01 (setting [6]).
As for EMVMCGGSLY, the Kd was 0.0199 µM in the assay with HLA-A*26:01 (setting [7]); 13.9 nM with HLA-A*29:02 (setting [7]); 0.468 µM in the assay with HLA-A*01:01 (setting [7]); not below 70.3 µM with HLA-A*24:02 (setting [7]); not below 70 µM with HLA-A*23:01 (setting [7]); 38.1 nM with HLA-A*30:02 (setting [7]).
As to DEEPMELDY, the Kd in the assay with HLA-A*26:01 (setting [7]) was not below 73.6 µM; with HLA-A*29:02 (setting [7]), 1130 nM; in the assay with HLA-A*01:01 (setting [7]), 2 µM; with HLA-A*24:02 (setting [7]) it was not below 77.6 µM; with HLA-A*23:01 (setting [7]), not below 59 µM; with HLA-A*30:02 (setting [7]), not below 42000 nM.
Take MLVSQALNSV: in the assay with HLA-A*02:01 (setting [1]), the Kd stood at 3.4 nM.
For MLMLVNDRLL, the dissociation constant (Kd) was not below 20000 nM with HLA-A*29:02 (setting [8]), not below 70.3 µM with HLA-A*24:02 (setting [8]) and 11.4 µM with HLA-A*23:01 (setting [8]).
For the sequence ITANPIVTD, the dissociation constant Kd with HLA-A*32:01 (source organism: Dengue virus 1 Brazil/97-11/1997) worked out at 2420 nM.
With VGRAWENTI, the Kd is not below 77.9 µM with HLA-A*26:01 (setting [9]); not below 78900 nM with HLA-A*29:02 (setting [9]); not below 26.7 µM with HLA-A*01:01 (setting [9]); 8.77 µM in the assay with HLA-A*24:02 (setting [9]); 2.95 µM with HLA-A*23:01 (setting [9]); 99.1 nM with HLA-A*30:02 (setting [9]).
KVNTTIARY: the dissociation constant Kd with HLA-A*26:01 (setting [6]) is 7.46 µM; with HLA-A*29:02 (setting [6]) it was 100 nM; with HLA-A*01:01 (setting [6]), 1.63 µM; with HLA-A*32:01 (setting [6]), 634 nM; with HLA-A*30:02 (setting [6]), 5.93 nM; with HLA-A*30:01 (setting [6]), 0.934 µM.
Turning to DEALRGFLLY, the dissociation constant Kd is not below 69.7 µM with HLA-A*26:01 (setting [3]); not below 59100 nM with HLA-A*29:02 (setting [3]); 14.8 µM with HLA-A*01:01 (setting [3]); not below 37.5 µM with HLA-A*24:02 (setting [3]); 5.86 µM in the assay with HLA-A*23:01 (setting [3]); not below 69700 nM in the assay with HLA-A*30:02 (setting [3]).
On to SRAWNVWEVE, for which, in the assay with HLA-A*32:01 (source organism: Dengue virus 3 Martinique/1243/1999), the dissociation constant (Kd) is not below 26500 nM.
Take TEEIAVQNWL: in the assay with HLA-B*40:01, the Kd stood at 104 nM.
Take SWLDFDEKLV: the equilibrium dissociation constant (Kd) in the assay with HLA-A*26:01 (setting [5]) is not below 69.7 µM; in the assay with HLA-A*29:02 (setting [5]), not below 71400 nM; in the assay with HLA-A*01:01 (setting [5]), 6.1 µM; with HLA-A*24:02 (setting [5]), 14 µM; with HLA-A*23:01 (setting [5]), 0.32 µM; with HLA-A*30:02 (setting [5]) it was 4940 nM.
Take GYLKPTTFML: the Kd is not below 69.7 µM in the assay with HLA-A*26:01 (setting [7]); 1020 nM with HLA-A*29:02 (setting [7]); not below 28.4 µM with HLA-A*01:01 (setting [7]); 0.103 µM with HLA-A*24:02 (setting [7]); 0.0336 µM with HLA-A*23:01 (setting [7]); 5130 nM in the assay with HLA-A*30:02 (setting [7]).
Regarding FFQDIPIFF, the figures for the equilibrium dissociation constant (Kd) with HLA-A*29:02 (setting [5]), in the assay with HLA-A*24:02 (setting [5]) and with HLA-A*23:01 (setting [5]) were 0.08 nM, 0.159 µM and 0.0103 µM, respectively.
Consider SFQQPQQQY, for which the dissociation constant (Kd) with HLA-A*33:01 was not below 77.7 µM; with HLA-A*26:01 (setting [10]) it was not below 43.7 µM; with HLA-A*29:02 (setting [10]), 84.1 nM; with HLA-A*01:01 (setting [10]), not below 68.9 µM; with HLA-A*03:01 it was not below 78 µM; with HLA-A*68:01, not below 77.7 µM. Besides, the Kd with HLA-A*24:02 (setting [10]) is not below 77.6 µM; with HLA-A*23:01 (setting [10]), not below 77.8 µM; in the assay with HLA-A*31:01, not below 77.9 µM; with HLA-A*30:02 (setting [10]), not below 63200 nM; with HLA-A*11:01, not below 77.9 µM.

The values above are taken from the Immune Epitope Database (IEDB).
